Source: article PMC5755580

Legend:
[1] = molecular target: VvPrx3 (C73S) (Vibrio vulnificus); test: SDS-PAGE under nonreducing conditions (intermolecular disulfide bond), time course; VvPrx3 (C73S) 70 µM reacted with 50 µM H2O2 for 0-60 s; quenched with 10 mM N-ethylmaleimide; band density by ImageJ
[2] = molecular target: VvPrx3 (C73S) (Vibrio vulnificus); test: SDS-PAGE under nonreducing or reducing conditions (intermolecular disulfide bond); reduced VvPrx3 (C73S) reacted with various concentrations of H2O2 or t-BOOH for 30 min at 298 K in 20 mM Tris-HCl pH 8.0, 150 mM NaCl; stopped with iodoacetamide; boiled with or without 10 mM DTT

For VvPrx3 (C73S) (enzyme), the protein linked by a disulfide bond at 30 s (70 µM protein, 50 µM H2O2) [1] was 30 µM and the stoichiometry N [2] was 2.
